Test results reported in PMC10320395, “Molecular insights into LINC complex architecture through the crystal structure of a luminal trimeric coiled-coil domain of SUN1” (Frontiers in Cell and Developmental Biology, 2023).
Values joined by “and” are separate entries in the source; they are usually repeats but may differ in a detail not shown here. Equal values may be shown once. Where no end group is shown, it is not given here.

Tests used:
[1] = biological target: the molecule itself; assay: crystal structure; SUN1 362–401 at 3.5 mg/mL, sitting drops, 20°C; spacegroup P2(1), a SUN1 trimer in the asymmetric unit; 2.07 Å
[2] = biological target: the molecule itself; assay: SEC-MALS; MBP-SUN1 α1 at 20 mg/mL and 1 mg/mL after purification, and at 20 mg/mL after over-night incubation with 2 mM zinc acetate (trimer stabilised); Superdex 200 Increase 10/300 GL, 20 mM HEPES pH 7.5, 150 mM KCl, 2 mM DTT; trimer to dimers to monomers
[3] = biological target: the molecule itself; assay: SEC-MALS; cleaved SUN1 constructs at > 5 mg/mL; Superdex 200 Increase 10/300 GL, 20 mM HEPES pH 7.5, 150 mM KCl, 2 mM DTT

B1: SUN1 α1 (luminal coiled-coil domain of human SUN1, amino-acids 362–401) (domain or fragment, UniProt O94901 362-401, looked up)
chain: MSGVEQQVASLSGQCHHHGENLRELTTLLQKLQARVDQME
modifications: also: C376 partly oxidised to S-hydroperoxycysteine in crystal chain B, occupancy 0.62
notes: human SUN1, Uniprot O94901, amino-acids 362–401 (α1 coiled-coil domain of the luminal region); Expressed from pMAT11 as a TEV-cleavable His-MBP fusion; tags removed with TEV protease; About one zinc ion per trimer was found in solution; the crystal lacked zinc; also called SUN1 362–401; source: E. coli BL21 (DE3), purified (Ni-NTA, amylose, ion exchange, TEV cleavage, ion exchange, SEC); not …
[1]
  binding result: binds

B2: MBP-SUN1 α1 (MBP fusion of human SUN1 amino-acids 362–401) (domain or fragment, UniProt O94901 362-401, looked up)
chain: B1 chain
notes: human SUN1, Uniprot O94901, amino-acids 362–401 (α1 coiled-coil domain); The uncleaved His-MBP fusion from pMAT11, used to give greater molecular mass resolution in SEC-MALS; theoretical monomer 49 kDa; The His tag probably stays with the MBP (surmise); source: E. coli BL21 (DE3), purified (Ni-NTA, amylose, ion exchange); not shown: MBP, N-terminal, kept
[2]
  stoichiometry N: 3 and 2

B3: SUN1 α2 (second luminal coiled-coil domain of human SUN1, amino-acids 421–584) (domain or fragment, UniProt O94901 421-584, looked up)
chain: ETDFMAFHQEHEVRMSHLEDILGKLREKSEAIQKELEQTKQKTISAVGEQLLPTVEHLQLELDQLKSELSSWRHVKTGCETVDAVQERVDVQVREMVKLLFSEDQQGGSLEQLLQRFSSQFVSKGDLQTMLRDLQLQILRNVTHHVSVTKQLPTSEAVVSAVSE
notes: human SUN1, Uniprot O94901, amino-acids 421–584 (α2 coiled-coil domain); Theoretical monomer 19 kDa, so the cleaved protein stood in SEC-MALS; source: E. coli BL21 (DE3), purified (Ni-NTA, amylose, ion exchange, TEV cleavage, ion exchange, SEC); not shown: His, N-terminal, cleaved; MBP, N-terminal, cleaved
[3]
  stoichiometry N: 3 and 2

B4: SUN1 α1-α2 (human SUN1 amino-acids 362–584) (domain or fragment, UniProt O94901 362-584, looked up)
chain: MSGVEQQVASLSGQCHHHGENLRELTTLLQKLQARVDQMEGGAAGPSASVRDAVGQPPRETDFMAFHQEHEVRMSHLEDILGKLREKSEAIQKELEQTKQKTISAVGEQLLPTVEHLQLELDQLKSELSSWRHVKTGCETVDAVQERVDVQVREMVKLLFSEDQQGGSLEQLLQRFSSQFVSKGDLQTMLRDLQLQILRNVTHHVSVTKQLPTSEAVVSAVSE
notes: human SUN1, Uniprot O94901, amino-acids 362–584 (α1 and α2 coiled-coils joined by their natural linker); Theoretical trimer 75 kDa; source: E. coli BL21 (DE3), purified (Ni-NTA, amylose, ion exchange, TEV cleavage, ion exchange, SEC); not shown: His, N-terminal, cleaved; MBP, N-terminal, cleaved
[3]
  stoichiometry N: 3

B5: SUN1 α1-α2-SUN (entire structured luminal domain of human SUN1, amino-acids 362–785) (domain or fragment, UniProt O94901 362-785, looked up)
chain: MSGVEQQVASLSGQCHHHGENLRELTTLLQKLQARVDQMEGGAAGPSASVRDAVGQPPRETDFMAFHQEHEVRMSHLEDILGKLREKSEAIQKELEQTKQKTISAVGEQLLPTVEHLQLELDQLKSELSSWRHVKTGCETVDAVQERVDVQVREMVKLLFSEDQQGGSLEQLLQRFSSQFVSKGDLQTMLRDLQLQILRNVTHHVSVTKQLPTSEAVVSAVSEAGASGITEAQARAIVNSALKLYSQDKTGMVDFALESGGGSILSTRCSETYETKTALMSLFGIPLWYFSQSPRVVIQPDIYPGNCWAFKGSQGYLVVRLSMMIHPAAFTLEHIPKTLSPTGNISSAPKDFAVYGLENEYQEEGQLLGQFTYDQDGESLQMFQALKRPDDTAFQIVELRIFSNWGHPEYTCLYRFRVHGEPVK
notes: human SUN1, Uniprot O94901, amino-acids 362–785 (α1, α2 and the C-terminal SUN domain); Theoretical trimer 142 kDa; source: E. coli BL21 (DE3), purified (Ni-NTA, amylose, ion exchange, TEV cleavage, ion exchange, SEC); not shown: His, N-terminal, cleaved; MBP, N-terminal, cleaved
[3]
  stoichiometry N: 3
